From publication PMC12335590

Molecular target: mouse platelet glycoprotein Ibα (mouse (endogenous in platelets)) (UniProt O35930)
UniProt O35930, sequence (O35930 17-734): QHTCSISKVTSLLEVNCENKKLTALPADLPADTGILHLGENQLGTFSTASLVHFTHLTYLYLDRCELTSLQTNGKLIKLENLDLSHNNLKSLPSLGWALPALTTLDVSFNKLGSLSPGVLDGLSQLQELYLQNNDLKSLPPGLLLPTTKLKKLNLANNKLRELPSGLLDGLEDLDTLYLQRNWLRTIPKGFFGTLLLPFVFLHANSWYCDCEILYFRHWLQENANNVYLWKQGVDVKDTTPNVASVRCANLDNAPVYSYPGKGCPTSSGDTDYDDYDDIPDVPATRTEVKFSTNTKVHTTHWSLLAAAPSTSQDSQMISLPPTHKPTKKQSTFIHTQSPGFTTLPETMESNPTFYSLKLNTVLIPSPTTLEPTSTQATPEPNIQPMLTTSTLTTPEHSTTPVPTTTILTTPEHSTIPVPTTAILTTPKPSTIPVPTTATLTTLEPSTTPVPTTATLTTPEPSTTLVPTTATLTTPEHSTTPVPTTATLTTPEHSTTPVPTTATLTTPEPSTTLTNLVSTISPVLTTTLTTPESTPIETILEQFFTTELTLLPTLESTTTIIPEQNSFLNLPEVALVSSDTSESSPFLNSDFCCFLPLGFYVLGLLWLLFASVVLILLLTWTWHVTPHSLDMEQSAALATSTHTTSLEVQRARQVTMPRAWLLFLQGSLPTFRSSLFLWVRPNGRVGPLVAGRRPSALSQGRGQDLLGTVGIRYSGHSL

translocation (rolling) velocity of Mical1+/+ platelets on immobilised recombinant mouse VWF at 1500 s-1 after αIIbβ3 blockade: 1.41 μm/s
Substance: recombinant mouse von Willebrand factor, Q8CIZ8 764-2813
